# Molecular target: Grb2 SH2 (UniProt P62993)
# Experiment: SH2 binding enrichment of the phosphorylated peptide, bacterial display (enrichment ratio); higher = better substrate or ligand; peptides without Tyr show the background
# 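Wherever SH2 binding enrichment of the phosphorylated peptide, bacterial display is given: peptide library displayed on the E. coli surface as eCPX fusions, selected cells deep-sequenced, score is each peptide's frequency after selection divided by its frequency in the input.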
# 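Wherever phosphorylation enrichment, bacterial display is given: 11-residue human phosphosite peptides and single-mutation variants displayed on the E. coli surface, counted by deep sequencing, each peptide's frequency after selection divided by its frequency in the unselected input library; frequency after pTyr selection over input frequency; kinase dosed for 20-30% of maximal phosphorylation in three min.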
# Grb2 SH2, sequence (P62993 whole entry, looked up): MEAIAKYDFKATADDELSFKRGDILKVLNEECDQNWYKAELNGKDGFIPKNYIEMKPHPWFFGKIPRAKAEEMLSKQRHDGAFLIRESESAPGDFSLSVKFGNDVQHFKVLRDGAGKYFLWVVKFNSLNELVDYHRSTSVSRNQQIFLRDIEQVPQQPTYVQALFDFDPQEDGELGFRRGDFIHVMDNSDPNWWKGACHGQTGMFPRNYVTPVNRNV
row,Sequence,SH2 binding enrichment
1,TNQVIYLNPPI [DYNC1H1_Y970],0.819
2,LFLALYTGLVH [PIGB_Y402],1.43
3,ESFCLYPPVPQ [CYP4B1_Y377_R375C],0.895
4,EEALFYLTRVE [SET_Y119_H118Y_YF],0.774
5,GGYTCCCDGKK [PROS1_Y266_Y266C],0.701
6,SEDSEYYKAFE [CASQ2_Y178],0.827
7,YFRDGYMPRQY [GSS_Y270],1.01
8,TSYSGYRCHRH [NKAPL_Y94_Y96C],0.939
9,IDPYIYTPFGS [CYP3A4_Y432],0.775
10,WQQQSYLDSVI [CTNNB1_Y30_G34V],0.757
11,FTRNFYVWAVL [CYBA_Y88_R90W_YF],1.09
12,IEPVIDVVQRR [ANOS1_Y217_Y217D],0.848
13,SDFFAYSPVRE [H6PD_Y449_YF],0.798
14,SLNEEYAKNKT [MSH2_Y563_T564A],0.949
15,ETKRPYTVILI [SBDS_Y128],0.838
16,TEVRRYVLPLN [RPE65_Y368_P363T],0.852
17,RRIHSYRGFLW [VHL_Y112_H115Y_YF],0.801
18,VPLATYMRIYK [RPL21_Y30],0.668
19,RHIEKYVDQGK [IRAK3_Y61],0.993
20,GTTIHYNFMCN [TP53_Y234_C229G_YF],0.715
21,ISKKIYDTIHD [CTNNA3_Y614],0.746
22,ITSLLYHVVGW [GBA_Y412_N409S],1.14
23,NLMPAYYKCIQ [CYP21A2_Y190],0.596
24,HCFAAYFQQGD [GPI_Y351_R347C],0.984
25,WNNLDYMDSRR [GAA_Y407_D404N],0.861
26,PASWTYVRWFD [PTDSS1_Y274],1.47
27,PLRAFYLIARV [HLCS_Y635_D634Y_YF],0.996
28,PSGPTYRGAVP [ASAH1_Y43],0.876
29,FSGDCYRIQGR [DDR2_Y741_Y740C_YF],0.806

# Molecular target: Fyn (UniProt P06241)
# Experiment: phosphorylation enrichment, bacterial display (enrichment ratio); higher = better substrate or ligand; peptides without Tyr show the background
# Fyn, sequence (P06241 whole entry, looked up): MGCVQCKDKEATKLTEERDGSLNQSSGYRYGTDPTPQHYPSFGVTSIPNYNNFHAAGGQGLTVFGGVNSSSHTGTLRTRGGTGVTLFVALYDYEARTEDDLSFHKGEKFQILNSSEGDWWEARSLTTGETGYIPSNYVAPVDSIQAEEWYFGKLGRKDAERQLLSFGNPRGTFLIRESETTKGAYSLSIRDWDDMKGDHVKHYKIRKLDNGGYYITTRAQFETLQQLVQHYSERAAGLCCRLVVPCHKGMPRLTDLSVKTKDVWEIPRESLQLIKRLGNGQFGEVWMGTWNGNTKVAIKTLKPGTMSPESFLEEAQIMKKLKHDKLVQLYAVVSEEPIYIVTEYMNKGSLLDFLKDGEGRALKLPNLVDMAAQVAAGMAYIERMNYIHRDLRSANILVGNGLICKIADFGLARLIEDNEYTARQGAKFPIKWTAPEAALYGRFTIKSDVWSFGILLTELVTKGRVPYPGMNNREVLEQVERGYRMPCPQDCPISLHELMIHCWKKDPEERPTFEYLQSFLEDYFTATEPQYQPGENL
row,Sequence,phosphorylation enrichment
1,TNQVIYLNPPI [DYNC1H1_Y970],0.62
2,LFLALYTGLVH [PIGB_Y402],1.42
3,ESFCLYPPVPQ [CYP4B1_Y377_R375C],0.459
4,EEALFYLTRVE [SET_Y119_H118Y_YF],0.58
5,GGYTCCCDGKK [PROS1_Y266_Y266C],0.507
6,SEDSEYYKAFE [CASQ2_Y178],0.621
7,YFRDGYMPRQY [GSS_Y270],0.479
8,TSYSGYRCHRH [NKAPL_Y94_Y96C],0.352
9,IDPYIYTPFGS [CYP3A4_Y432],7.45
10,WQQQSYLDSVI [CTNNB1_Y30_G34V],0.504
11,FTRNFYVWAVL [CYBA_Y88_R90W_YF],0.427
12,IEPVIDVVQRR [ANOS1_Y217_Y217D],0.39
13,SDFFAYSPVRE [H6PD_Y449_YF],0.514
14,SLNEEYAKNKT [MSH2_Y563_T564A],0.413
15,ETKRPYTVILI [SBDS_Y128],0.457
16,TEVRRYVLPLN [RPE65_Y368_P363T],0.412
17,RRIHSYRGFLW [VHL_Y112_H115Y_YF],0.577
18,VPLATYMRIYK [RPL21_Y30],0.454
19,RHIEKYVDQGK [IRAK3_Y61],0.533
20,GTTIHYNFMCN [TP53_Y234_C229G_YF],0.477
21,ISKKIYDTIHD [CTNNA3_Y614],0.584
22,ITSLLYHVVGW [GBA_Y412_N409S],3.16
23,NLMPAYYKCIQ [CYP21A2_Y190],0.432
24,HCFAAYFQQGD [GPI_Y351_R347C],0.755
25,WNNLDYMDSRR [GAA_Y407_D404N],0.464
26,PASWTYVRWFD [PTDSS1_Y274],0.669
27,PLRAFYLIARV [HLCS_Y635_D634Y_YF],0.92
28,PSGPTYRGAVP [ASAH1_Y43],0.602
29,FSGDCYRIQGR [DDR2_Y741_Y740C_YF],0.446

# Source: the supplement of paper PMC10065799, “High-throughput profiling of sequence recognition by tyrosine kinases and SH2 domains using bacterial peptide display” (eLife, 2023)
